In patent US20110239327A1, “Nematicidal Effects of Cysteine Proteinases and Methods of Use Thereof to Treat Nematode Infestation” (priority 2007, published 2011):

Columns and labels:
[1] = system: M. incognita J2; assay: In planta bioassay, one soil application: nematode infection of tomato roots; assay type: in vivo, M. incognita on tomato plants; settings: with or without Vydate 125 μl; for Mean number of nematodes in roots: soil 16% organic matter, 11 days; for Reduction of nematode infection of tomato plants: vs controls
Procedure: Oxamyl is supplied as 10% liquid Vydate. 125 μl of a solution 1000 fold dilution of 10% formulation (kindly supplied by DK from NIU) was applied to 5 g of the soil mixture with 16% organic matter, to give a partial nematicidal effect. Soil mixtures were wetted with PBS pH 7.2, 16 hrs prior nematode application of 1000 or 2000 M. incognita J2. Infected soil mixtures were treated with water (control) or 250 μM of active papain in 16 mM of L-cysteine or a combination of Vydate and 250 μM of active papain in 16 mM of L-cysteine. After 48 hs tomato seedlings one month old were added to the treated soils. After 11 days the roots were washed free of soil and chopped to approximately 2 mm pieces. The root pieces of each tomato plant was placed in muslin bags and stained with acid-fuchsin. The stained roots were examined under microscope and all the nematodes present in the roots were counted. In some experiments the soil mixture was wetted with PBS pH 7.2 or 250 μM of active papain for 16 hs to block the non-specific binding site present in the soil particles. After that approximately 1000 M. incognita J2 were applied to soil mixtures, followed by application of 250 μM of active papain in presence of 16 mM of L-cysteine, or water (control) or Vydate alone or a combination of 250 μM of active papain in presence of 16 mM of L-cysteine and Vydate. After 48 hours tomato seedlings one month old were added to the treated soils and after 11 days post infection nematode development inside root tissues was assessed as described above.
Approximately 2000 J2 of M. incognita were added to 5 g of 1:6 loam and sand which was previously wetted for 16 hs with PBS pH 7. Then a solution of 300 μM or 150 μM of active papain (in 16 mM of L-cysteine) with and without 125 μl Vydate was added to soil and left to react for 48 hs. After this period of time tomato seedlings one month old were added to the treated soil mixtures and placed in a glasshouse at 23° C. in a 16:8 h light-dark regime (Table 1). After 11 days nematode development in the root tissue was assessed.

[2] = system: Steinernema feltiae; assay: In vitro effect on the beneficial nematode Steinernema feltiae; assay type: cell-based
Procedure: (§1) Eggs of M. incognita race 1 from North Carolina State University, USA were collected from tomato-infected roots grown in a glasshouse at 23° C. in a 16:8 h light-dark regime. Eggs were extracted using 1% hypochlorite (NaClO) solution (Hussey and Barker, 1973) or by picking egg masses from tomato-infected roots. Juveniles (J2) were hatched from the eggs and egg masses in water. Heterodera glycines eggs were obtained from soil samples stored in Rothamsted-Research. Second stage juveniles (J2) were hatched from the eggs in water after 10 days. Pratylenchus penetrans were a gift from Dr. Deeren Anne-Marie from the Institute for Agricultural and Fisheries Research, Merelbeke, Belgium. The beneficial nematodes Steinernema feltiae and Heterorhabditis megidis were a gift from Dr. Paul Williams from Becker Underwood.
Control wells were set up which contained J2s and distilled water with 16 mM L-cysteine. Each enzyme concentration and the controls were set up in duplicate (i.e. n=2). The actual number of active J2s per well was counted with the aid of an Olympus inverted microscope, prior to the addition of the enzymes, and then the J2s were incubated in the dark at room temperature for 2 hs, 16 hs, 24 hs or 40 hr. The number of live and dead J2s per well was counted after each enzyme incubation. The same procedure was followed when setting up further experiments to compare the effects of these enzymes with Heterodera glycines J2, Pratylenchus penetrans, Steinernema feltiae and Heterorhabditis megidis.
The beneficial nematodes Hetorhabditis megidis and Steinernema feltiae were incubated with dilutions of actinidin, bromelain and pappain from papaya latex (see concentrations used in table 3). These nematodes reacted differentially to these cysteine proteinases (Tables 4 and 5). […] S. feltiae were dead at all concentrations of actinidin tested. […] After 16 hs of observation the enzyme solutions were diluted with water (to half of the initial concentrations) however, no change in nematode movement was observed after 24 hs.

[3] = system: adult females of M. incognita; assay: Light microscopy of Meloidogyne adult female worms incubated with papain; assay type: cell-based; set-up: digestion of the cuticle of adult females: dose or concentration left out as unconfirmed
Procedure: To assess whether these enzymes also affected the cuticles of other stages of the nematodes, five adult females of M. […], prepared in 16 mM L-cysteine dissolved in phosphate buffered saline (PBS), pH 7.4, or PBS, pH 7.4 with and without 16 mM L-cysteine. These nematodes were incubated in the dark at ambient temperature for 4 h and were then examined using a light microscope at ×10 and ×20 magnification to observe any differences to the nematode body wall.

[4] = system: M. incognita J2; assay: In vitro live/dead count of M. incognita J2 in solution without soil (Example 2); assay type: cell-based; settings: after 40 hs of observation, at the nematicidal concentration
Procedure: as §1, with “Underwood. […]” for “Underwood.”
Control wells were set up which contained J2s and distilled water with 16 mM L-cysteine. […] The actual number of active J2s per well was counted with the aid of an Olympus inverted microscope, prior to the addition of the enzymes, and then the J2s were incubated in the dark at room temperature for 2 hs, 16 hs, 24 hs or 40 hr. The number of live and dead J2s per well was counted after each enzyme incubation. […]

[5] = system: Meloidogyne spp. eggs; assay: Effect on eggs, hatching and development of Meloidogyne spp.; assay type: cell-based
Procedure: To determine if the enzymes affected the eggshell and/or the development and hatching of the juveniles which the eggs contain, approximately 300 Meloidogyne spp. eggs were incubated per well of a 48-well plate, in duplicate, in 50 μM (active enzyme) papain, prepared in 16 mM L-cysteine dissolved in distilled water, or distilled water with and without 16 mM L-cysteine. The number of eggs in each well was counted before the addition of papain and then the eggs were incubated in the dark at room temperature for 4 h. The number of eggs was counted before further incubation overnight. Finally, closer examination of the structure of the nematode eggs was performed using the light microscope at ×40 magnification.

B1: papain (protein, UniProt P00784 134-345, looked up)
Papain: IPEYVDWRQKGAVTPVKNQGSCGSCWAFSAVVTIEGIIKIRTGNLNEYSEQELLDCDRRSYGCNGGYPWSALQLVAQYGIHYRNTYPYEGVQRYCRSREKGPYAAKTDGVRQVQPYNEGALLYSIANQPVSVVLEAAGKDFQLYRGGIFVGPCGNKVDHAVAAVGYGPNYILIKNSWGTGWGENGYIRIKRGTGNSYGVCGLYTSSFYPVKN
notes: cysteine proteinase from Carica papaya, Merops C01.001, Sigma P3125
With B1 the “Mean number of nematodes in roots” value ([1]; papain 150 μM) was 272, the “Reduction of nematode infection of tomato plants” value ([1]; papain 150 μM) was 14% and the “Mean number of nematodes in roots” value ([1]; papain 300 μM) was 132. The “Reduction of nematode infection of tomato plants” value ([1]; papain 300 μM) was 60%, the “only papain concentration that affected S. feltiae movement” value [2] was 250 µM and the “nematode motility or behaviour” value ([2]; enzyme concentration A (Table 3): actinidin 3.3 mM, bromelain 2.2 mM, papain 250 uM) was 70% paralysed. The “nematode motility or behaviour” value ([2]; enzyme concentration B: actinidin 1.7 mM, bromelain 1.1 mM, papain 125 uM) was “All moving slowly”, the “digestion of the cuticle of adult females (light micrographs)” value ([3]; 25 μM active papain, 4 h) was “Digestion of the cuticle was evident” and the “digestion of the cuticle of adult females” value ([3]; active papain) was “digestion of the cuticle was evident”. For the same molecule, the recovery of movement [4] was “not able to recover movement”, the “hatching and development of the J2 stage” value ([5]; incubation of the eggs with enzyme) was “not affected” and the “effect on eggs / structure of the eggs” value ([5]; light microscopy, up to overnight incubation) was “remained unaffected”.
